Measurements as given in patent US20170260282A1 (Janssen / Centocor, published 2017).

How the values were obtained:
[1] = biological target: T1, Cyno GITR (cell surface) (cynomolgus monkey); experiment: flow cytometry, transiently transfected HEK293F cells, 0.1 mg/mL antibody
T1 construct: Presented on transfected or transduced HEK293 cells; also called cynomolgus monkey GITR
T1 chain: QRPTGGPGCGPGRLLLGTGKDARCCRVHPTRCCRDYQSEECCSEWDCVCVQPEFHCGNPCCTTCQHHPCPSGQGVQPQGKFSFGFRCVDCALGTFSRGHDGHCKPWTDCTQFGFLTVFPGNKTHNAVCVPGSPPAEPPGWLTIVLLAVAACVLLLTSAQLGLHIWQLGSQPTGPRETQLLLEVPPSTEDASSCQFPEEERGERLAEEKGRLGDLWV

[2] = biological target: T2, Human GITR (cell surface) (human, UniProt Q9Y5U5 26-241); experiment: as above
T2 construct: also called hGITR; huGITR
T2 sequence: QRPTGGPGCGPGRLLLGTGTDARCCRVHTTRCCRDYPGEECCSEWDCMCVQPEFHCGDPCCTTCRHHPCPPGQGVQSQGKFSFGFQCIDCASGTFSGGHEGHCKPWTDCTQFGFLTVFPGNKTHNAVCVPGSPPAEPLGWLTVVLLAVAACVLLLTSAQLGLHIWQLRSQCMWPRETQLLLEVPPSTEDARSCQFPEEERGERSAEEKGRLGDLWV

[3] = biological target: T3, recombinant human GITR ECD (human, UniProt Q9Y5U5 26-161); experiment: SPR (ProteOn XPR36), mAb captured by anti-human Fc, GITR ECD as analyte, 25 °C
T3 construct: also called human GITR extracellular domain
T3 sequence: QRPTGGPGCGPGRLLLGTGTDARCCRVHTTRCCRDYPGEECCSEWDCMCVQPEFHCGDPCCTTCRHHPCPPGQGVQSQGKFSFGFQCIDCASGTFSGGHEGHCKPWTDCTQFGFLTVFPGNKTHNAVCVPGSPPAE
Protocol: (§1) The affinities of the GITR antibodies to recombinant human GITR ECD were measured by Surface Plasmon Resonance (SPR) using a ProteOn XPR36 protein interaction array system (BioRad).
(§2) The rates of GITR ECD association and dissociation were measured for each variant. The biosensor surface was prepared by covalently coupling Goat anti-Human IgG (Fc) to the surface of a GLC chip (BioRad) using the manufacturer instructions for amine-coupling chemistry. Approximately 8800 RU (response units) of Goat anti-Human IgG (Fc) antibody (Jackson ImmunoResearch laboratories Prod #109-005-098) were immobilized. […] Since the mixture was 1:1 about 50% of these RU immobilized are expected to be goat anti-human Fc. The binding kinetics experiments were performed at 25° C. in running buffer (PBS pH 7.4, 0.005% P20, 3 mM EDTA). […] (1:3) serial dilutions of human GITR ECD or cyno GITR ECD starting at 100 nM were prepared in running buffer. […] The reference spots (Goat anti-Human IgG (Fc)-modified surface) containing no candidate captured were used as a reference surface. Capture of mAb was followed by 3 min injection (association phase) of antigen at 40 μL/min, followed by 10 min of buffer flow (dissociation phase). The chip surface was regenerated by injection of 0.85% phosphoric acid at 100 μL/min. Data were processed on the instrument software. Double reference subtraction of the data was performed by subtracting the curves generated by buffer injection from the reference-subtracted curves for analyte injections. Kinetic analysis of the data was performed using 1:1 Langmuir binding model with group fit. The result for each mAb was reported in the format of kon or on-rate, koff or off-rate, and KD (Equilibrium dissociation constant) (Table 7).

[4] = biological target: T4, cyno GITR ECD (cynomolgus monkey); experiment: as above
T4 construct: Only the extracellular domain stood in the SPR assay
T4 chain: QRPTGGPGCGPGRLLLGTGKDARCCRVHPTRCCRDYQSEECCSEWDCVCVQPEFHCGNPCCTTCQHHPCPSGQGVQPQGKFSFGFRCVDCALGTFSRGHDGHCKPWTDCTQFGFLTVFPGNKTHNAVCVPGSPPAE
Protocol: as §1, §2

[5] = biological target: T1, Cyno GITR (cell surface); experiment: cell-based or functional assay
[6] = biological target: T2, Human GITR (cell surface); experiment: cell-based or functional assay

binding result [1]	binding result [2]	ADCC EC50, HEK293-hGITR target cells, NK-92 FcγRIIIa 176V/V effector cells [6]	other results	Binder
binds	binds	–	–	TRGB144 (antibody, human IgG1, kappa, V domains shown, human IgG1/kappa) VH: QVQLVQSGAEVKKPGSSVKVSCKASGGTFSSYAISWVRQAPGQGLEWMGGIIPIFGTANYAQKFQGRVTITADESTSTAYMELSSLRSEDTAVYYCARHGFQRGYLDYWGQGTLVTVSS VL: EIVLTQSPATLSLSPGERATLSCRASQSVSSYLAWYQQKPGQAPRLLIYDASNRATGIPARFSGSGSGTDFTLTISSLEPEDFAVYYCQQRSNWPLTFGQGTKVEIKR
binds	binds	–	–	TRGB134 (antibody, human IgG1, kappa, V domains shown, human IgG1/kappa) VH: QVQLVQSGAEVKKPGSSVKVSCKASGGTFSSYAISWVRQAPGQGLEWMGGIIPIFGTANYAQKFQGRVTITADESTSTAYMELSSLRSEDTAVYYCARHRWGSGNLDYWGQGTLVTVSS VL: EIVLTQSPATLSLSPGERATLSCRASQSVSSYLAWYQQKPGQAPRLLIYDASNRATGIPARFSGSGSGTDFTLTISSLEPEDFAVYYCQQRSNWPLTFGQGTKVEIKR
–	–	2.9 ng/mL	Kd [3]: 3.04 nM; koff [3]: 0.00162 s⁻¹; kon [3]: 532000 M⁻¹ s⁻¹; Kd [4]: 10.6 nM; koff [4]: 0.00197 s⁻¹; kon [4]: 185000 M⁻¹ s⁻¹; ADCC EC50, HEK293-cyno GITR target cells, NK-92 FcγRIIIa 176V/V effector cells [5]: 25.8 ng/mL; ADCC EC50, HT1080-hGITR target cells, NK-92 FcγRIIIa 176V/V effector cells [6]: 6.7 ng/mL	TRGB159 (antibody, human IgG1, kappa, V domains shown, human IgG1/kappa) VH: QVQLVQSGAEVKKPGSSVKVSCKASGGTFSSYAISWVRQAPGQGLEWMGGIIPIFGTANYAQKFQGRVTITADESTSTAYMELSSLRSEDTAVYYCARHGRNSGRLDYWGQGTLVTVSS VL: EIVLTQSPATLSLSPGERATLSCRASQSVSSYLAWYQQKPGQAPRLLIYDASNRATGIPARFSGSGSGTDFTLTISSLEPEDFAVYYCQQRSNWPLTFGQGTKVEIKR
binds	binds	–	–	TRGB162 (antibody, human IgG1, kappa, V domains shown, human IgG1/kappa) VH: QVQLVQSGAEVKKPGSSVKVSCKASGGTFSSYAISWVRQAPGQGLEWMGGIIPIFGNANYAQKFQGRVTITADESTSTAYMELSSLRSEDTAVYYCARHVYKRGVLNYWGQGTLVTVSS VL: EIVLTQSPATLSLSPGERATLSCRASQSVSSYLAWYQQKPGQAPRLLIYDASNRATGIPARFSGSGSGTDFTLTISSLEPEDFAVYYCQQRSNWPLTFGQGTKVEIKR
–	–	4.4 ng/mL	ADCC EC50, HEK293-cyno GITR target cells, NK-92 FcγRIIIa 176V/V effector cells [5]: 10.2 ng/mL	TRGB23 (antibody, human IgG1, kappa, V domains shown) VH: QVQLVQSGAEVKKPGSSVKVSCKASGGTFSSYAISWVRQAPGQGLEWMGGIIPIFGTANYAQKFQGRVTITADESTSTAYMELSSLRSEDTAVYYCARHGNWLHFNLDYWGQGTLVTVSS VL: EIVLTQSPATLSLSPGERATLSCRASQSVSSYLAWYQQKPGQAPRLLIYDASNRATGIPARFSGSGSGTDFTLTISSLEPEDFAVYYCQQRSNWPLTFGQGTKVEIKR
binds	–	7.6 ng/mL	–	TRGB31 (antibody, human IgG1, kappa, V domains shown, human IgG1/kappa) VH: EVQLVQSGAEVKKPGESLKISCKGSGYSFTSYWIGWVRQMPGKGLEWMGIIDPSDSDTRYSPSFQGQVTISADKSISTAYLQWSSLKASDTAMYYCARVFPYYGLVLDYWGQGTLVTVSS VL: EIVLTQSPATLSLSPGERATLSCRASQSVSSYLAWYQQKPGQAPRLLIYDASNRATGIPARFSGSGSGTDFTLTISSLEPEDFAVYYCQQRSNWPLTFGQGTKVEIKR
binds	binds	–	–	TRGB35 (antibody, human IgG1, kappa, V domains shown, human IgG1/kappa) VH: EVQLVQSGAEVKKPGESLKISCKGSGYSFTSYWISWVRQMPGKGLEWMGIIDPGDSDTRYSPSFQGQVTISADKSISTAYLQWSSLKASDTAMYYCARHRWSTSLLLDYWGQGTLVTVSS VL: EIVLTQSPATLSLSPGERATLSCRASQSVSSYLAWYQQKPGQAPRLLIYDASNRATGIPARFSGSGSGTDFTLTISSLEPEDFAVYYCQQRSNWPLTFGQGTKVEIKR
binds	–	5.8 ng/mL	–	TRGB34 (antibody, human IgG1, kappa, V domains shown, human IgG1/kappa) VH: EVQLVQSGAEVKKPGESLKISCKGSGYSFTSYWIGWVRQMPGKGLEWMGIIYPGDSDTRYSPSFQGQVTISADKSISTAYLQWSSLKASDTAMYYCARDYGWHDFDYWGQGTLVTVSS VL: EIVLTQSPATLSLSPGERATLSCRASQSVSSYLAWYQQKPGQAPRLLIYDASNRATGIPARFSGSGSGTDFTLTISSLEPEDFAVYYCQQRSNWPLTFGQGTKVEIKR
binds	binds	–	–	TRGB120 (antibody, human IgG1, kappa, V domains shown, human IgG1/kappa) VH: QVQLVQSGAEVKKPGSSVKVSCKASGGTFSSYAISWVRQAPGQGLEWMGGIIPIFGTANYAQKFQGRVTITADESTSTAYMELSSLRSEDTAVYYCARPRRNTNELDYWGQGTLVTVSS VL: not shown
binds	binds	–	–	TRGB5 (antibody, human IgG1, kappa, V domains shown, human IgG1/kappa) VH: EVQLLESGGGLVQPGGSLRLSCAASGFTFSGYWMSWVRQAPGKGLEWVSAISGSGGSTYYADSVKGRFTISRDNSKNTLYLQMNSLRAEDTAVYYCAKDFYWDAFDYWGQGTLVTVSS VL: EIVLTQSPATLSLSPGERATLSCRASQSVSSYLAWYQQKPGQAPRLLIYDASNRATGIPARFSGSGSGTDFTLTISSLEPEDFAVYYCQQRSNWPLTFGQGTKVEIKR
binds	binds	–	–	TRGB14 (antibody, human IgG1, kappa, V domains shown, human IgG1/kappa) VH: not shown VL: EIVLTQSPATLSLSPGERATLSCRASQSVNNFLAWYQQKPGQAPRLLIYDASNRATGIPARFSGSGSGTDFTLTISSLEPEDFAVYYCQQGFNAPLTFGQGTKVEIKR
binds	binds	–	–	TRGB20 (antibody, human IgG1, kappa, V domains shown, human IgG1/kappa) VH: EVQLLESGGGLVQPGGSLRLSCAASGFTFSGYWMNWVRQAPGKGLEWVSGISSDGGSKYYADSVKGRFTISRDNSKNTLYLQMNSLRAEDTAVYYCAKEVVYDHYAALDYWGQGTLVTVSS VL: EIVLTQSPATLSLSPGERATLSCRASQSVNSFLAWYQQKPGQAPRLLIYYASNRATGIPARFSGSGSGTDFTLTISSLEPEDFAVYYCQQYIRWPLTFGQGTKVEIKR
